From patent US20060223096A1 (GLYCART BIOTECHNOLOGY, published 2006)

target: T1, human melanoma chondroitin sulfate proteoglycan (MCSP) (human, UniProt Q6UVK1 30-2322); experiment: flow cytometry on A375 human melanoma cells
T1 construct: whole, on cells; also called HMW-MAA; high molecular weight-melanoma-associated antigen
Experimental: The purified, monomeric humanized antibody variants were tested for binding to the human HMW-MAA/MCSP antigen on the A375 human melanoma cell line, using a flow cytometry-based assay. 200,000 cells (in 180 μl FACS buffer (PBS containing 2% FCS and 5 mM EDTA) were transferred to 5 ml polystyrene tubes and 20 μl 10 fold concentrated anti-MCSP antibody (primary antibody) samples (1-5000 ng/ml final concentration) or PBS only were added. After gently mixing the samples, the tubes were incubated at 4° C. for 30 min in the dark. Subsequently, samples were washed twice with FACS buffer and pelleted at 300 g for 3 min. Supernatant was aspirated off and cells were taken up in 50 μl FACS buffer and 2 μl secondary antibody (anti-Fc-specific F(ab′)2-FITC fragments (Jackson Immuno Research Laboratories, USA)) was added and the tubes were incubated at 4° C. for 30 min. Samples were washed twice with FACS buffer and taken up in 500 μl of FACS buffer for analysis by Flow Cytometry. Binding was determined by plotting the geometric mean fluorescence against the antibody concentrations.

T1 sequence (Q6UVK1 30-2322): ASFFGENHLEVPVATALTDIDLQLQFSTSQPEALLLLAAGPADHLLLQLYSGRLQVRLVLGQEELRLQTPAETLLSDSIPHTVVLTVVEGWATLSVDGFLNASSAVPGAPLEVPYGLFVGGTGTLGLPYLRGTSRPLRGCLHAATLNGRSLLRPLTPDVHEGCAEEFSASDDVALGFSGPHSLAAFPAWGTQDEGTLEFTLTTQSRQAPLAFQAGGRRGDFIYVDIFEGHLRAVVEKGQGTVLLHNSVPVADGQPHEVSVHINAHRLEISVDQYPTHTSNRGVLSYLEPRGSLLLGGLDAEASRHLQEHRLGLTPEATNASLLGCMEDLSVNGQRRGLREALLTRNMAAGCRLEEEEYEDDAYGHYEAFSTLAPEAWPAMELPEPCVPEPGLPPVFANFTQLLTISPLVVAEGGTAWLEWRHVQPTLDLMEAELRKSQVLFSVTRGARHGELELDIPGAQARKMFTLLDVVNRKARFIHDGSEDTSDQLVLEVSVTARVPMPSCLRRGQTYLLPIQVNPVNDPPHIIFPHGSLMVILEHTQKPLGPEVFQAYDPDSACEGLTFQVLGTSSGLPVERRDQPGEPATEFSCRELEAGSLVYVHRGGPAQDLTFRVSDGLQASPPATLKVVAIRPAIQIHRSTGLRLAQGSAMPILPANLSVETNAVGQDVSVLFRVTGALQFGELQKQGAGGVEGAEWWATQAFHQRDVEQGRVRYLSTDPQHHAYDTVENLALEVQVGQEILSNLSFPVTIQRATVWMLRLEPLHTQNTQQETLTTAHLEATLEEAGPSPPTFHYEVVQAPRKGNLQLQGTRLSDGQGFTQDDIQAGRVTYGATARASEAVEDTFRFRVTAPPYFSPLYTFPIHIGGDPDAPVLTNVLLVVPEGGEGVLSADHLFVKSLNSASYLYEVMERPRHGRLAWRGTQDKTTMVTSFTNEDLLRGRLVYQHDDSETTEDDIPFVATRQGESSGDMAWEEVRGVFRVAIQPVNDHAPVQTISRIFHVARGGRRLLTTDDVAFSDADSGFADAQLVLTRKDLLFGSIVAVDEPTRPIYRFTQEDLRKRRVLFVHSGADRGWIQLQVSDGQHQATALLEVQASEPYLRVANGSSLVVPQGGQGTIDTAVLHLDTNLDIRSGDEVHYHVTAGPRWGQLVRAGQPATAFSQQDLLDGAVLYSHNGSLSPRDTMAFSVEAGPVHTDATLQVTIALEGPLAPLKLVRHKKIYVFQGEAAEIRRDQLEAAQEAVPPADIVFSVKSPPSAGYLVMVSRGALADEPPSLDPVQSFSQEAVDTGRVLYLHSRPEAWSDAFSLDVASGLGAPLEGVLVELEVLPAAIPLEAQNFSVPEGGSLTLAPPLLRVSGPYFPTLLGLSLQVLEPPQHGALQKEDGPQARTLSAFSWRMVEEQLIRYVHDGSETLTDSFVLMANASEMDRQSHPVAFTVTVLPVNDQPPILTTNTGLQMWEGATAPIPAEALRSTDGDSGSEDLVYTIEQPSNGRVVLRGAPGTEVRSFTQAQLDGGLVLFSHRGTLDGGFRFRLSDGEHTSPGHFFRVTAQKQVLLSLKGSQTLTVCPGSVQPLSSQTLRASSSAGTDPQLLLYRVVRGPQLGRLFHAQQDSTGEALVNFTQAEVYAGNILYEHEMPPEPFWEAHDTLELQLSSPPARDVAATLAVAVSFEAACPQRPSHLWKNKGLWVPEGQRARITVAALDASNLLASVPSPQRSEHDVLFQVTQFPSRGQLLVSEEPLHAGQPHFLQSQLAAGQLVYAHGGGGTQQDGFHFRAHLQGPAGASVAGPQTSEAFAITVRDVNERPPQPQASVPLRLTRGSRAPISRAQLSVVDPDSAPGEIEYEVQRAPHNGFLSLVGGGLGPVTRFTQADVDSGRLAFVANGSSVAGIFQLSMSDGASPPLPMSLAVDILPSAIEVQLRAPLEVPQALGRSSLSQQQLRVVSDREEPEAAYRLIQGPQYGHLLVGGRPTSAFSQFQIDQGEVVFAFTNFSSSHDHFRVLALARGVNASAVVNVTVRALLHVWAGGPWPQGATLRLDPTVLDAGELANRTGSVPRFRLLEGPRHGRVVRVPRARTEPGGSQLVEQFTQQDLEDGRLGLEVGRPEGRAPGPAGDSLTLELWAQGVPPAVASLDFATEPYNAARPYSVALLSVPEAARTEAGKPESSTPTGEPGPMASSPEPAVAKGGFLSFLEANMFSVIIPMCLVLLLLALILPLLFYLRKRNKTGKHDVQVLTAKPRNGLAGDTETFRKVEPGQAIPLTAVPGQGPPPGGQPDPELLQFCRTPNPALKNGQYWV

Binder	binding result
M-HLE1 heavy chain paired with the light chain construct M-KV4 (antibody, V domains shown, also called M-HLE1/M-KV4) VH: EVQLVESGGGLVKPGGSLRLSCAASGFTFSNYWMNWVRQAPGKGLEWVGEIRLKSNNFGRYYAQKFQERVTITRDMSTSTAYMELSSLRSEDTAVYYCAAYGNYVGHYFDHWGQGTTVTVSS VL: DIQLTQSPSFLSASVGDRVTITCKASQNVDTNVAWYQQKPGKAPEPLLFSASYRYTGVPSRFSGSGSGTEFTLTISSLQPEDFATYYCQQYNSYPLTFGGGTKVEIKR	binds
M-HLC heavy chain combined with the light chain construct M-KV3 (antibody, V domains shown, also called M-HLC/M-KV3) VH: QVQLVQSGAEVKKPGASVKVSCKASGYTFTNYWMNWVRQAPGQGLEWMGEIRLKSNNFGRYYAESVKGRVTITRDTSMSTAYMELSSLRSEDTAVYYCAAYGNYVGHYFDHWGQGTTVTVSS VL: DIQLTQSPSFLSASVGDRVTVTCKASQNVDTNVAWYQQKPGKAPEPLLFSASYRYTGVPSRFSGSGSGTEFTLTISSLQPEDFATYYCQQYNSYPLTFGGGTKVEIKR	no binding (tested: 1-5000 ng/ml final concentration)
M-HLA heavy chain combined with the light chain construct M-KV3 (antibody, V domains shown, also called M-HLA/M-KV3) VH: QVQLVQSGAEVKKPGASVKVSCKASGYTFTNYWMNWVRQAPGQGLEWMGEIRLKSNNFGRYYAQKFQGRVTMTRDTSTSTVYMELSSLRSEDTAVYYCARYGNYVGHYFDHWGQGTTVTVSS VL: DIQLTQSPSFLSASVGDRVTVTCKASQNVDTNVAWYQQKPGKAPEPLLFSASYRYTGVPSRFSGSGSGTEFTLTISSLQPEDFATYYCQQYNSYPLTFGGGTKVEIKR	no binding (tested: 1-5000 ng/ml final concentration)
M-HLB heavy chain combined with the light chain construct M-KV3 (antibody, V domains shown, also called M-HLB/M-KV3) VH: QVQLVQSGAEVKKPGASVKVSCKASGYTFTNYWMNWVRQAPGQGLEWMGEIRLKSNNFGRYYAQKFQGRVTITRDTSMSTAYMELSSLRSEDTAVYYCAAYGNYVGHYFDHWGQGTTVTVSS VL: DIQLTQSPSFLSASVGDRVTVTCKASQNVDTNVAWYQQKPGKAPEPLLFSASYRYTGVPSRFSGSGSGTEFTLTISSLQPEDFATYYCQQYNSYPLTFGGGTKVEIKR	no binding (tested: 1-5000 ng/ml final concentration)
M-HLE2 heavy chain paired with the light chain construct M-KV4 (antibody, V domains shown, also called M-HLE2/M-KV4) VH: EVQLVESGGGLVKPGGSLRLSCAASGFTFSNYWMNWVRQAPGKGLEWVGEIRLKSNNFGRYYAESVKGRVTITRDMSTSTAYMELSSLRSEDTAVYYCAAYGNYVGHYFDHWGQGTTVTVSS VL: DIQLTQSPSFLSASVGDRVTITCKASQNVDTNVAWYQQKPGKAPEPLLFSASYRYTGVPSRFSGSGSGTEFTLTISSLQPEDFATYYCQQYNSYPLTFGGGTKVEIKR	binds
M-HHB heavy chain coexpressed with murine 225.28S light chain (mVL) (antibody, V domains shown, also called M-HHB/mVL) VH: EVQLVESGGGLVKPGGSLRLSCAASGFTFSNYWMNWVRQAPGKGLEWVGEIRLKSNNFGRYYAESVKGRFTISRDDSKNTLYLQMNSLKTEDTAVYYCTSYGNYVGHYFDHWGQGTTVTVSS VL: DIELTQSPKFMSTSVGDRVSVTCKASQNVDTNVAWYQQKPGQSPEPLLFSASYRYTGVPDRFTGSGSGTDFTLTISNVQSEDLAEYFCQQYNSYPLTFGGGTKLEIK	binds
humanized M-HLG/M-KV9 construct of the 225.28S antibody (antibody, V domains shown, also called M-KV9 together with M-HLG) VH: EVQLVESGGGLVQPGGSLRLSCAASGFTFSNYWMNWVRQAPGKGLEWVAEIRLKSNNFGRYYAASVKGRFTISRDDSKNTLYLQMNSLKTEDTAVYYCTTYGNYVGHYFDHWGQGTTVTVSS VL: DIQLTQSPSFLSASVGDRVTITCKASQNVDTNVAWYQQKPGQAPRPLIYSASYRYTGVPSRFSGSGSGTEFTLTISSLQPEDFATYYCQQYNSYPLTFGGGTKVEIKR	binds
M-KV6 light chain paired with the M-HHB heavy chain (antibody, V domains shown, also called M-HHB/M-KV6) VH: EVQLVESGGGLVKPGGSLRLSCAASGFTFSNYWMNWVRQAPGKGLEWVGEIRLKSNNFGRYYAESVKGRFTISRDDSKNTLYLQMNSLKTEDTAVYYCTSYGNYVGHYFDHWGQGTTVTVSS VL: DIQLTQSPSFLSASVGDRVTITCKASQNVDTNVAWFQQRPGQSPRRLIYSASYRYTGVPSRFSGSGSGTEFTLTISSLQPEDFATYYCQQYNSYPLTFGGGTKVEIKR	no binding (tested: 1-5000 ng/ml final concentration)
M-KV5 light chain paired with the M-HHB heavy chain (antibody, V domains shown, also called M-HHB/M-KV5) VH: EVQLVESGGGLVKPGGSLRLSCAASGFTFSNYWMNWVRQAPGKGLEWVGEIRLKSNNFGRYYAESVKGRFTISRDDSKNTLYLQMNSLKTEDTAVYYCTSYGNYVGHYFDHWGQGTTVTVSS VL: DIQLTQSPSFLSASVGDRVTITCKASQNVDTNVAWYLQKPGQSPQLLIYSASYRYTGVPSRFSGSGSGTEFTLTISSLQPEDFATYYCQQYNSYPLTFGGGTKVEIKR	no binding (tested: 1-5000 ng/ml final concentration)

More lines, now with the values ahead:

binding result	Binder
binds	M-HLD heavy chain paired with the M-KV9 light chain (antibody, V domains shown, also called M-HLD/M-KV9) VH: QVQLVQSGAEVKKPGASVKVSCKASGFTFSNYWMNWVRQAPGQGLEWMGEIRLKSNNFGRYYAESVKGRVTITRDTSMSTAYMELSSLRSEDTAVYYCAAYGNYVGHYFDHWGQGTTVTVSS VL: DIQLTQSPSFLSASVGDRVTITCKASQNVDTNVAWYQQKPGQAPRPLIYSASYRYTGVPSRFSGSGSGTEFTLTISSLQPEDFATYYCQQYNSYPLTFGGGTKVEIKR
binds	M-KV3 light chain coexpressed with murine 225.28S heavy chain (mVH) (antibody, V domains shown, The VL entry ends in KRT; also called mVH/M-KV3) VH: QVKLQQSGGGLVQPGGSMKLSCVVSGFTFSNYWMNWVRQSPEKGLEWIAEIRLKSNNFGRYYAESVKGRFTISRDDSKSSAYLQMINLRAEDTGIYYCTSYGNYVGHYFDHWGQGTTVTVSS VL: DIQLTQSPSFLSASVGDRVTVTCKASQNVDTNVAWYQQKPGKAPEPLLFSASYRYTGVPSRFSGSGSGTEFTLTISSLQPEDFATYYCQQYNSYPLTFGGGTKVEIKR
binds	M-HLG heavy chain paired with the light chain construct M-KV4 (antibody, V domains shown, also called M-HLG/M-KV4) VH: EVQLVESGGGLVQPGGSLRLSCAASGFTFSNYWMNWVRQAPGKGLEWVAEIRLKSNNFGRYYAASVKGRFTISRDDSKNTLYLQMNSLKTEDTAVYYCTTYGNYVGHYFDHWGQGTTVTVSS VL: DIQLTQSPSFLSASVGDRVTITCKASQNVDTNVAWYQQKPGKAPEPLLFSASYRYTGVPSRFSGSGSGTEFTLTISSLQPEDFATYYCQQYNSYPLTFGGGTKVEIKR
binds	M-KV4 light chain paired with the M-HHB heavy chain (antibody, V domains shown, also called M-HHB/M-KV4) VH: EVQLVESGGGLVKPGGSLRLSCAASGFTFSNYWMNWVRQAPGKGLEWVGEIRLKSNNFGRYYAESVKGRFTISRDDSKNTLYLQMNSLKTEDTAVYYCTSYGNYVGHYFDHWGQGTTVTVSS VL: DIQLTQSPSFLSASVGDRVTITCKASQNVDTNVAWYQQKPGKAPEPLLFSASYRYTGVPSRFSGSGSGTEFTLTISSLQPEDFATYYCQQYNSYPLTFGGGTKVEIKR
binds	M-KV12 light chain combined with the M-HLG heavy chain (antibody, V domains shown, also called M-HLG/M-KV12) VH: EVQLVESGGGLVQPGGSLRLSCAASGFTFSNYWMNWVRQAPGKGLEWVAEIRLKSNNFGRYYAASVKGRFTISRDDSKNTLYLQMNSLKTEDTAVYYCTTYGNYVGHYFDHWGQGTTVTVSS VL: DIQLTQSPSFLSASVGDRVTITCKASQNVDTNVAWYQQKPGQAPRPLIYSASYLQSGVPSRFSGSGSGTEFTLTISSLQPEDFATYYCQQYNSYPLTFGGGTKVEIKR
binds	M-KV7 light chain paired with the M-HHB heavy chain (antibody, V domains shown, also called M-KV7 antibody; M-HHB/M-KV7) VH: EVQLVESGGGLVKPGGSLRLSCAASGFTFSNYWMNWVRQAPGKGLEWVGEIRLKSNNFGRYYAESVKGRFTISRDDSKNTLYLQMNSLKTEDTAVYYCTSYGNYVGHYFDHWGQGTTVTVSS VL: DIQLTQSPSFLSASVGDRVTITCKASQNVDTNVAWYQQKPGKAPKPLIYSASYRYTGVPSRFSGSGSGTEFTLTISSLQPEDFATYYCQQYNSYPLTFGGGTKVEIKR
binds	M-KV10 light chain combined with the M-HLG heavy chain (antibody, V domains shown, also called M-HLG/M-KV10) VH: EVQLVESGGGLVQPGGSLRLSCAASGFTFSNYWMNWVRQAPGKGLEWVAEIRLKSNNFGRYYAASVKGRFTISRDDSKNTLYLQMNSLKTEDTAVYYCTTYGNYVGHYFDHWGQGTTVTVSS VL: DIQLTQSPSFLSASVGDRVTITCRASQNVDTNLAWYQQKPGQAPRPLIYSASYRYTGVPSRFSGSGSGTEFTLTISSLQPEDFATYYCQQYNSYPLTFGGGTKVEIKR
binds	M-HHA heavy chain coexpressed with murine 225.28S light chain (mVL) (antibody, V domains shown, also called M-HHA/mVL) VH: EVQLVESGGGLVKPGGSLRLSCAASGFTFSNYWMNWVRQAPGKGLEWVGEIRLKSNNFGRYYAASVKGRFTISRDDSKNTLYLQMNSLKTEDTAVYYCTTYGNYVGHYFDHWGQGTTVTVSS VL: DIELTQSPKFMSTSVGDRVSVTCKASQNVDTNVAWYQQKPGQSPEPLLFSASYRYTGVPDRFTGSGSGTDFTLTISNVQSEDLAEYFCQQYNSYPLTFGGGTKLEIK
binds	M-KV9 light chain combined with the M-HHB heavy chain (antibody, V domains shown, also called M-KV9 with M-HHB; M-HHB/M-KV9) VH: EVQLVESGGGLVKPGGSLRLSCAASGFTFSNYWMNWVRQAPGKGLEWVGEIRLKSNNFGRYYAESVKGRFTISRDDSKNTLYLQMNSLKTEDTAVYYCTSYGNYVGHYFDHWGQGTTVTVSS VL: DIQLTQSPSFLSASVGDRVTITCKASQNVDTNVAWYQQKPGQAPRPLIYSASYRYTGVPSRFSGSGSGTEFTLTISSLQPEDFATYYCQQYNSYPLTFGGGTKVEIKR
binds	M-HHC heavy chain coexpressed with murine 225.28S light chain (mVL) (antibody, V domains shown, also called M-HHC/mVL) VH: EVQLVESGGGLVKPGGSLRLSCAASGFTFSNYWMNWVRQAPGKGLEWVANIRLKSNNFGRYYAESVKGRFTISRDDSKNTLYLQMNSLKTEDTAVYYCTSYGNYVGHYFDHWGQGTTVTVSS VL: DIELTQSPKFMSTSVGDRVSVTCKASQNVDTNVAWYQQKPGQSPEPLLFSASYRYTGVPDRFTGSGSGTDFTLTISNVQSEDLAEYFCQQYNSYPLTFGGGTKLEIK
